Consider 25 molecules from patent US20260274985A1 (MYTHIC THERAPEUTICS, published 2026).

Test [1] concerns the target T1, TROP2 on TROP2-positive NCI-H1975 cells (human, UniProt P09758 27-323).
T1 construct: Endogenous TROP2 of the human NCI-H1975 cell line; also called TACSTD2
T1 sequence: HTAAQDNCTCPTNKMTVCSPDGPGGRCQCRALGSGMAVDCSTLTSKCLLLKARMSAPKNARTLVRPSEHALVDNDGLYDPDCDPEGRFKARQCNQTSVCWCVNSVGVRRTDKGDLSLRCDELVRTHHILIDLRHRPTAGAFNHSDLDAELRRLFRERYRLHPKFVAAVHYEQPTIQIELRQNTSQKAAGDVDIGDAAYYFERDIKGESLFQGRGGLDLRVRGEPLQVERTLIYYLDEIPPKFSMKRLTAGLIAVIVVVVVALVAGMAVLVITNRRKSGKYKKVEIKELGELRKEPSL
Put plainly: binding to NCI-H1975 cells at pH 6.4, maximal MFI.

For test [2], the target named is T1, TROP2 on TROP2-positive NCI-H1975 cells. Put plainly: cell-based or functional assay.
The target of test [3] is T2, Human TROP2 Protein, His Tag (Acro Biosystems) (human, UniProt P09758 27-274).
T2 construct: not shown: His tag
T2 sequence (looked up): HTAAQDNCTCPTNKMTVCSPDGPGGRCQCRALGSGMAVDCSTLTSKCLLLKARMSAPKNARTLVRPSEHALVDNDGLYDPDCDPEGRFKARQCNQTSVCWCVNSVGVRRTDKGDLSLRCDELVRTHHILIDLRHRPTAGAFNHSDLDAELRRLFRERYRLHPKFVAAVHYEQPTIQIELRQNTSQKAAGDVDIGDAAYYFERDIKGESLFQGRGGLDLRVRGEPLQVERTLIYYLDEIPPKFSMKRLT
Put plainly: BLI (Octet).

For test [4], the target named is T1, TROP2 on TROP2-positive NCI-H1975 cells. Put plainly: cell-based or functional assay. The source holds these as a separate data set.
Test [5] has as its target T3, TROP2 on TROP2-positive NCI-H1975 cells (human, UniProt P09758 27-323).
T3 construct: whole, on cells
T3 sequence (looked up): T1 sequence
Put plainly: binding to TROP2-positive NCI-H1975 cells at pH 6.7.

The target in test [6] is T2, Human TROP2 Protein, His Tag (Acro …). Put plainly: Octet (BLI); antigen and pH not given. In general terms: Biolayer interferometry detects binding as a change in optical thickness at a sensor tip.
Test [7] has as its target T3, TROP2 on TROP2-positive NCI-H1975 cells. Put plainly: binding to TROP2-positive NCI-H1975 cells at pH 7.4.
In test [8] the target is T4, Human TROP2 Protein, His Tag (Acro Biosystems) (human, UniProt P09758 27-274).
T4 construct: also called TACSTD2; not shown: His tag
T4 sequence (looked up): T2 sequence (looked up)
Put plainly: BLI (Octet) [1/2].

In test [9] the target is T4, Human TROP2 Protein, His Tag (Acro …). Put plainly: BLI (Octet) [2/2].

Changes are numbered by the printed parent chain.

B1: MYT11704 (antibody, human IgG1, V domains shown)
VH: QVQLQESGPGLVKPSETLSLTCTVSGGSISSYGVHWIRQPPGKGLEWIGVIWTSGVTDYNSALMGRVTISVDTSKNQFSLKLSSVTAADTAVYYCARDGDYDRYTMDYWGQGTLVTVSS
VL: DIVMTQSPDSLAVSLGERATINCRASKSVSTSGYSYMHWYQQKPGQPPKLLIYLASNLESGVPDRFSGSGSGTDFTLTISSLQAEDVAVYYCQHSRELPYTFGQGTKLEIK
notes: Human IgG1 heavy chain constant domain and Kappa light chain constant domain; also called hu7E6SVG WT; hu7E6SVG
As for B1, the “Max MFI (@ pH 6.4)-H1975” value in [1] came to 31500 MFI. Besides, the “Cytotox Fold over datopotamab (FOD)” value in test [2] was found to be 1.22 fold over datopotamab.

B2: MYT13304 (antibody, V domains shown)
VH: B1 VH with R103H
VL: B1 VL with T101H
notes: Full-length IgG from Expi293 supernatant; also called hu7E6SVG heavy chain and light chain pairing variant
Consider B2, for which the binding result in [3] was “binds”.

B3: MYT13280 (antibody, V domains shown)
VH: B1 VH with M106H
VL: B1 VL with E59H
notes: as for B2
Turning to B3, the binding result in test [3] is given as “binds”.

B4: MYT12459 (antibody, human IgG1, V domains shown)
VH: B1 VH
VL: B1 VL with E59H, Q93H, E97H
notes: Human IgG1 heavy chain constant domain and Kappa light chain constant domain; also called hu7E6SVG pH variant
On to B4, for which, in test [1], the “Max MFI (@ pH 6.4)-H1975” value is 18700 MFI. In addition, the “Cytotox Fold over datopotamab (FOD)” value in test [2] turned out to be 1.35 fold over datopotamab.

B5: MYT11614 (antibody, human IgG1, V domains shown)
VH: QVQLQQSGSELKKPGASVKVSCKASGYTFTNYGMNWVKQAPGQGLKWMGWINTYTGEPTYTDDFKGRFAFSLDTSVSTAYLQISSLKADDTAVYFCARGGFGSSYWYFDVWGQGSLVTVSS
VL: DIQLTQSPSSLSASVGDRVSITCKASQDVHIAVAWYQQKPGKAPKLLIYSASYRYTGVPDRFSGSGSGTDFTLTISSLQPEDFAVYYCQQHYITPLTFGAGTKVEIK
notes: Human IgG1 heavy chain constant domain and Kappa light chain constant domain; also called Sacituzumab LC variant
Take B5: the “Max MFI (@ pH 6.4)-H1975” value in [1] was 19400 MFI. Moreover, the “Cytotox Fold over datopotamab (FOD)” value in [2] worked out at 1.35 fold over datopotamab.

B6: MYT13369 (antibody, human IgG1, V domains shown)
VH: B5 VH with D62H
VL: B5 VL with V33H
notes: also called sacituzumab HC-LC pairing variant
As to B6, the “Max MFI (@ pH 6.4)-H1975” value in test [1] was found to be 17100 MFI. In [4], the “FOW H1975 (10 nM)” value stood at 1.44 fold over parent antibody. For the same molecule, the “Cytotox Fold over datopotamab (FOD)” value in test [2] came out at 1.33 fold over datopotamab.

B7: MYT13270 (antibody, V domains shown)
VH: QVQLVQSGAEVKKPGASVKVSCKASGYTFTTAGMQWVRQAPGQGLEWMGWINTHSGVPKYAEDFKGRVTISADTSTSTAYLQLSSLKSEDTAVYYCARSGHGSSYWYFDVWGQGTLVTVSS
VL: B5 VL with L4M, S20T, H30S, I31T, D60S, Q90H, A100Q, V104L
notes: Full-length IgG from Expi293 supernatant; also called datopotamab heavy chain and light chain pairing variant
Regarding B7, the binding result in test [3] was “binds”.

B8: MYT13425 (antibody, human IgG1, V domains shown)
VH: B5 VH with D62H
VL: B5 VL with A51H, I93H
notes: IgG; also called Sacituzumab HC-LC pairing variant
Molecule B8 registered a half-maximal inhibitory concentration (IC50) in test [5] of 2.66 nM. Besides, in [6], the Kd is 3.9 nM and the “Octet response at 33.33 nM (Y-Axis) nm” value came to 0.135 nm. Besides, in test [7], the IC50 was 0.81 nM.

B9: MYT13259 (antibody, V domains shown)
VH: B7 VH with H101F, S104H
VL: B5 VL with L4M, S20T, V29H, H30S, I31T, D60S, A100Q, V104L
notes: as for B7
Take B9: the binding result in [3] is “binds”.

B10: MYT13262 (antibody, V domains shown)
VH: B7 VH
VL: B5 VL with L4M, S20T, H30S, I31T, S52H, D60S, A100Q, V104L
notes: as for B7
Consider B10, for which, in test [3], the binding result was “binds”.

B11: MYT13269 (antibody, V domains shown)
VH: B7 VH with R98H, H101F
VL: B5 VL with L4M, S20T, H30S, I31T, D60S, Q90H, A100Q, V104L
notes: as for B7
Turning to B11, the binding result in test [3] is recorded as “binds”.

B12: MYT13393 (antibody, V domains shown)
VH: B5 VH with D62H
VL: B5 VL with H30S, V33H, Y53H
notes: Sacituzumab HC-LC pairing variant
In the case of B12, in test [8], the binding result was “binds”.

B13: MYT13370 (antibody, human IgG1, V domains shown)
VH: B5 VH with D63H
VL: B5 VL with V33H
notes: also called sacituzumab HC-LC pairing variant; Sacituzumab pH variant
Turning to B13, in test [1], the “Max MFI (@ pH 6.4)-H1975” value was 13400 MFI. For the same molecule, in test [4], the “FOW H1975 (10 nM)” value was found to be 1.43 fold over parent antibody. In addition, the “Cytotox Fold over datopotamab (FOD)” value in test [2] was 1.28 fold over datopotamab.

B14: MYT13428 (antibody, human IgG1, V domains shown)
VH: B5 VH with K65H
VL: B5 VL with A51H, I93H
notes: as for B6
As for B14, the “Max MFI (@ pH 6.4)-H1975” value in test [1] amounted to 6720 MFI. In addition, in [4], the “FOW H1975 (10 nM)” value is 1.55 fold over parent antibody. For the same molecule, in test [2], the “Cytotox Fold over datopotamab (FOD)” value stood at 1.18 fold over datopotamab.

B15: MYT13427 (antibody, human IgG1, V domains shown)
VH: B5 VH with F64H
VL: B5 VL with A51H, I93H
notes: as for B8
In test [5], B15 had an IC50 of 4.39 nM. In addition, in [6], the affinity, expressed as Kd, was 2.12 nM and the “Octet response at 33.33 nM (Y-Axis) nm” value was determined as 0.134 nm. In test [7], this molecule had a 50% inhibitory concentration (IC50) of 1 nM.

B16: MYT13271 (antibody, V domains shown)
VH: B7 VH with H101F, S104H
VL: B5 VL with L4M, S20T, H30S, I31T, D60S, Q90H, A100Q, V104L
notes: as for B7
As for B16, in test [3], the binding result is “binds”.

B17: MYT13427 (antibody, human IgG1, V domains shown)
VH: B5 VH with F64H
VL: B5 VL with A51H, I93H
notes: as for B13
In the case of B17, in test [1], the “Max MFI (@ pH 6.4)-H1975” value came to 6110 MFI. In addition, in test [4], the “FOW H1975 (10 nM)” value came to 1.56 fold over parent antibody. Moreover, in [2], the “Cytotox Fold over datopotamab (FOD)” value is 1.19 fold over datopotamab.

B18: MYT13258 (antibody, V domains shown)
VH: B7 VH
VL: B5 VL with L4M, S20T, V29H, H30S, I31T, D60S, A100Q, V104L
notes: as for B7
For B18, in test [3], the binding result is reported as “binds”.

B19: MYT13261 (antibody, V domains shown)
VH: B7 VH with R98H, H101F
VL: B5 VL with L4M, S20T, H30S, I31T, S52H, D60S, A100Q, V104L
notes: as for B7
With B19, the binding result in test [3] was “binds”.

B20: MYT11670 (antibody, human IgG1, V domains shown)
VH: B7 VH with H101F, S104H
VL: B5 VL with L4M, S20T, H30S, I31T, D60S, A100Q, V104L
notes: Human IgG1 heavy chain constant domain and Kappa light chain constant domain; also called Datopotamab pH variant
B20: in [1], the “Max MFI (@ pH 6.4)-H1975” value is 20000 MFI. Besides, the “Cytotox Fold over datopotamab (FOD)” value in [2] was found to be 1.41 fold over datopotamab.

B21: MYT13428 (antibody, human IgG1, V domains shown)
VH: B5 VH with K65H
VL: B5 VL with A51H, I93H
notes: as for B8
On to B21, for which the concentration for half-maximal inhibition (IC50) in test [5] was 8.29 nM. In [6], the Kd stood at 2.08 nM and the “Octet response at 33.33 nM (Y-Axis) nm” value was 0.141 nm. The same molecule displayed an IC50 in [7] of 1.56 nM.

B22: MYT13394 (antibody, V domains shown)
VH: B5 VH with D63H
VL: B5 VL with H30S, V33H, Y53H
notes: as for B12
As for B22, the binding result in test [8] was “binds”.

B23: MYT13408 (antibody, V domains shown)
VH: B5 VH with Y60H
VL: B5 VL with H30S, A51H, S52H
notes: as for B12
As to B23, the binding result in test [9] was “binds”.

B24: MYT13396 (antibody, V domains shown)
VH: B5 VH with K65H
VL: B5 VL with H30S, V33H, Y53H
notes: as for B12
As for B24, the binding result in test [8] was “binds”.

B25: MYT13397 (antibody, V domains shown)
VH: B5 VH with G66H
VL: B5 VL with H30S, V33H, Y53H
notes: as for B12
For B25, the binding result in test [8] is given as “binds”.

Usually IC50 stands for the concentration needed to halve the response being measured. The term Kd denotes the concentration at which binding is half-saturated. Read a high Kd as a looser complex.
